Source: patent US20160251703, “ALLERGEN DETECTION” (DOTS DEVICES, INC., published 2016)

B1: SPN-E* (structured_DNA)
DNA 1: TGCAGCTAAGCAGGCGGCTCACAAAACCATTCGCATGCGGC
DNA 2: CTTAGCTGCA
B2: MB7 (ssDNA)
DNA: TCGCACATTCCGCTTCTACCGGGGGGGTCGAGCTGAGTGGATGCGAATCTGTGGGTGGGCCGTAAGTCCGTGTGTGCGAATGTGCGA
B3: MB9 (ssDNA)
DNA: TCGCACATTCCGCTTCTACCGGGGGGGTCGAGCTGAGTGGATGCGAATCTGTGGGTGGGCCGTAAGTCCGTGTGTGCGAAAATGTGCGA

Assays:
Bovine serum albumin = Bovine serum albumin (Bos taurus, UniProt P02769 P02769:25-607); test: fluorescence turn-on; minimal signal with BSA negative control; conditions: tags: Sigma Aldrich; label: 5'-fluorescein, 3'-DABCYL; hairpin
Sequence of Bovine serum albumin (P02769 25-607, one chain of several): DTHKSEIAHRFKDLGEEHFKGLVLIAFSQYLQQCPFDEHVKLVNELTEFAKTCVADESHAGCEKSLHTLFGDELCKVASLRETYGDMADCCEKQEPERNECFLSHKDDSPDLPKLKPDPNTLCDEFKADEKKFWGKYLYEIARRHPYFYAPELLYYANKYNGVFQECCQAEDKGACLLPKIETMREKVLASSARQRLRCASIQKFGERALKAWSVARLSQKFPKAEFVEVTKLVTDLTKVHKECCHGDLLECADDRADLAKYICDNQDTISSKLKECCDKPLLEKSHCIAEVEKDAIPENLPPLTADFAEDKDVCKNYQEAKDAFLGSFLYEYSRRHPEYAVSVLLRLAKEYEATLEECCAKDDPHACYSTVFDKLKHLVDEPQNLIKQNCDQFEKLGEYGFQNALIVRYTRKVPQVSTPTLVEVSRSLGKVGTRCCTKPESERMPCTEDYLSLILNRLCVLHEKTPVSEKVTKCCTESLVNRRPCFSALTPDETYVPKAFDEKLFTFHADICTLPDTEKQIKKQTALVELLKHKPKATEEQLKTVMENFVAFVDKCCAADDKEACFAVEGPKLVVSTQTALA
Description: (§1) Protein samples are diluted to specified concentrations in PBS. The signaling polynucleotide solutions are prepared at 200 μM in 10 mM TRIS-HCl, pH 7.5, heated to 99° C. for 3 minutes and then cooled to room temperature for 20 minutes. Volumes of 60 μL of protein solutions are added to the wells of a 96-well plate. Signaling polynucleotides are added to the wells as soon as possible after the addition of the protein samples. Fluorescence readings are taken immediately with all readings obtained at 25° C. with an excitation wavelength of 495 nm and emission monitored at the fluorescence peak of 519 nm. The signaling polynucleotides were synthesized by TriLink Biotechnologies (San Diego, Calif.), pure lysozyme was obtained from Pierce (Thermoscientific) and BSA was obtained from Sigma Aldrich.
(§2) The data plotted in FIG. 9A indicate that SPN-E* at a concentration of 100 μM detects lysozyme at a 5 ng/mL concentration and increases the detection level to 3 pg/sample. The data plotted in FIG. 9B indicate that SPN-E can be used to detect lysozyme in unprocessed egg white which was diluted 1:20 (sample size was 30 μL). SPN-E gave a minimal signal with BSA as the negative control protein.

Lysozyme (egg white) [1] = target: T1, Lysozyme (egg white) (UniProt P00698 P00698:19-147); test: fluorescence turn-on; detects lysozyme 0.6-1200 ng/mL; 12 uM SPN; PBS/Tris pH 7.5, 25 C; conditions: tags: Pierce (Thermo Scientific); label: 5'-fluorescein, 3'-Dabcyl; hairpin
T1 sequence (P00698 19-147, one chain of several): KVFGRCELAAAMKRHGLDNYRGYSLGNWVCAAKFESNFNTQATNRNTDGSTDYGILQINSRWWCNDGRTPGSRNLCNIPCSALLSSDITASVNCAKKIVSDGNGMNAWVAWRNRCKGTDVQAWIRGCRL
Description: as §1
An assay was performed to obtain a dose curve (12 μM of detection of signaling polynucleotide SPN-E per sample). The results are shown in FIG. 8 and indicate that SPN-E detects lysozyme concentrations ranging from 0.6 ng/mL to 1200 ng/mL, translating to less than 50 pg of lysozyme per sample.

Lysozyme (egg white) [2] = target: T1, Lysozyme (egg white); test: fluorescence turn-on; 100 uM SPN detects 5 ng/mL lysozyme; 25 C; not altered by milk or BSA (FIG. 10); conditions: tags: Pierce (Thermo Scientific); partial duplex with annealed 10-nt quencher linker at 5' end
Description: as §1, §2

Lysozyme (egg white) [3] = target: T1, Lysozyme (egg white); test: fluorescence turn-on; lysozyme spiked into chocolate cake; conditions: tags: Pierce (Thermo Scientific); label: 5'-fluorescein, 3'-Dabcyl; hairpin
Description: A set of binding assays were performed using lysozyme SPNs (MB4, MB5 and MB6). Experimental procedures: Food samples were homogenized as stated above—generally 2.5 ml buffer was added to 0.5 food sample. The samples were homogenized and centrifuged. 25 ul of the sample was added to a 96 flat bottom well plate. The specific SPN was resuspended to a 100 uM concentration and 25 ul of the SPN was added to the plate—final concentration 50 uM. The samples were immediately read with the GloMax Promega plate reader using the blue laser. (detection was quantified as the intensity of FITC minus the background—buffer alone and non-spiked samples).

Ovomucoid = Ovomucoid (UniProt P01005 P01005:25-210); test: ovomucoid spiked in mug cake; conditions: label: 5'-fluorescein, 3'-Dabcyl; hairpin
Sequence of Ovomucoid (P01005 25-210, one chain of several): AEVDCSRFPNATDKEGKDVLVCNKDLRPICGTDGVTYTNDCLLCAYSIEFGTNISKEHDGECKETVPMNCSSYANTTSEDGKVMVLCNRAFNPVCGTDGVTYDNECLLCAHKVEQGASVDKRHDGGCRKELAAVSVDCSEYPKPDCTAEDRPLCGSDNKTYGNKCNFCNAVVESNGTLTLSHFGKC

Binder | binding result (Lysozyme (egg white) [3]) | binding result (Ovomucoid) | also measured
TGCAGCTAAGCAGGCGGCTCACAAAACCATTCGCATGCGGCGCTGC (ssDNA) [SPN-E] |  |  | binding result (Bovine serum albumin): no binding; binding result (Lysozyme (egg white) [1]): binds
B1 |  |  | binding result (Lysozyme (egg white) [2]): binds
TGCAGCTAAGCAGGCGGCTCACAAAACCATTCGCATGCGGCTGCA (ssDNA) [MB4] | binds |  | 
TGCAGCTAAGCAGGCGGCTCACAAAACCATTCGCATGCGGCGCTGCA (ssDNA) [MB6] | binds |  | 
B2 |  | no binding | 
B3 |  | no binding | 
